According to patent US20250243277A1 (AVACTA LIFE SCIENCES, published 2025):

B1: Clone 198 (designed binder)
chain: MIPGGLSEAKPATPEIQEIVDKVKPQLEEKTGETYGKLEAVQYKTQVVSSPLHWELWHWSGTNYYIKVRAGDNKYMHLKVFKSLELNNKDQNDEDLVLTGYQVDKNKDDELTGF
notes: His-tagged
B2: Clone 212 (designed binder)
chain: MIPGGLSEAKPATPEIQEIVDKVKPQLEEKTGETYGKLEAVQYKTQVVYAFITPVTHGTNYYIKVRAGDNKYMHLKVFKSLWLNNFGKNFEDLVLTGYQVDKNKDDELTGF
notes: His-tagged
B3: Clone 186 (designed binder)
chain: MIPGGLSEAKPATPEIQEIVDKVKPQLEEKTGETYGKLEAVQYKTQVVYDNVKEYPWGTNYYIKVRAGDNKYMHLKVFKSLKWYDPTIRPEDLVLTGYQVDKNKDDELTGF
notes: His-tagged
B4: Clone 183 (designed binder)
chain: MIPGGLSEAKPATPEIQEIVDKVKPQLEEKTGETYGKLEAVQYKTQVVRQTDSVKWWGTNYYIKVRAGDNKYMHLKVFKSLWYNRYYNDFEDLVLTGYQVDKNKDDELTGF
notes: His-tagged
B5: Clone 34 (designed binder)
chain: MIPGGLSEAKPATPEIQEIVDKVKPQLEEKTGETYGKLEAVQYKTQVVTHLNNNAWTGTNYYIKVRAGDNKYMHLKVFKSLFFHNGKIYREDLVLTGYQVDKNKDDELTGF
notes: His-tagged
B6: Clone 203 (designed binder)
chain: MIPGGLSEAKPATPEIQEIVDKVKPQLEEKTGETYGKLEAVQYKTQVVYHGPPKEWLGTNYYIKVRAGDNKYMHLKVFKSLFFWKGNGYREDLVLTGYQVDKNKDDELTGF
notes: His-tagged
B7: Clone 193 (designed binder)
chain: MIPGGLSEAKPATPEIQEIVDKVKPQLEEKTGETYGKLEAVQYKTQVVLRHPVQDDDGTNYYIKVRAGDNKYMHLKVFKSLAGVNRWKWIEDLVLTGYQVDKNKDDELTGF
notes: His-tagged
B8: Clone 197 (designed binder)
chain: MIPGGLSEAKPATPEIQEIVDKVKPQLEEKTGETYGKLEAVQYKTQVVWKPQDSVNWGTNYYIKVRAGDNKYMHLKVFKSLDWDGAAGDAEDLVLTGYQVDKNKDDELTGF
notes: His-tagged
B9: Clone 185 (designed binder)
chain: MIPGGLSEAKPATPEIQEIVDKVKPQLEEKTGETYGKLEAVQYKTQVVVVLFASGWEGTNYYIKVRAGDNKYMHLKVFKSLIQWRDHKPREDLVLTGYQVDKNKDDELTGF
notes: His-tagged
B10: Clone 206 (designed binder)
chain: MIPGGLSEAKPATPEIQEIVDKVKPQLEEKTGETYGKLEAVQYKTQVVRADVNVIWWGTNYYIKVRAGDNKYMHLKVFKSLPVKYKEILLEDLVLTGYQVDKNKDDELTGF
notes: His-tagged
B11: Clone 181 (designed binder)
chain: MIPGGLSEAKPATPEIQEIVDKVKPQLEEKTGETYGKLEAVQYKTQVVKAYKVFNYIGTNYYIKVRAGDNKYMHLKVFKSLFKWDNGISDEDLVLTGYQVDKNKDDELTGF
notes: His-tagged
B12: Clone 217 (designed binder)
chain: MIPGGLSEAKPATPEIQEIVDKVKPQLEEKTGETYGKLEAVQYKTQVVKKYVIFFYEGTNYYIKVRAGDNKYMHLKVFKSLFVNKGGSDDEDLVLTGYQVDKNKDDELTGF
notes: His-tagged
B13: Clone 188 (designed binder)
chain: MIPGGLSEAKPATPEIQEIVDKVKPQLEEKTGETYGKLEAVQYKTQVVPQENAPWVLGTNYYIKVRAGDNKYMHLKVFKSLNWDQPDTVLEDLVLTGYQVDKNKDDELTGF
notes: His-tagged
B14: Clone 209 (designed binder)
chain: MIPGGLSEAKPATPEIQEIVDKVKPQLEEKTGETYGKLEAVQYKTQVVIAKEENHWRGTNYYIKVRAGDNKYMHLKVFKSLHYYQDVLYREDLVLTGYQVDKNKDDELTGF
notes: His-tagged
B15: Clone 79 (designed binder)
chain: MIPGGLSEAKPATPEIQEIVDKVKPQLEEKTGETYGKLEAVQYKTQVVIWHSEWSYTGTNYYIKVRAGDNKYMHLKVFKSLFTRHSEPWEEDLVLTGYQVDKNKDDELTGF
notes: His-tagged
B16: Clone 202 (designed binder)
chain: MIPGGLSEAKPATPEIQEIVDKVKPQLEEKTGETYGKLEAVQYKTQVVIRHVIWSYSGTNYYIKVRAGDNKYMHLKVFKSLWERNASLSEEDLVLTGYQVDKNKDDELTGF
notes: His-tagged
B17: Clone 213 (designed binder)
chain: MIPGGLSEAKPATPEIQEIVDKVKPQLEEKTGETYGKLEAVQYKTQVVKQHTKEWAPGTNYYIKVRAGDNKYMHLKVFKSLWNHLYHYPFEDLVLTGYQVDKNKDDELTGF
notes: His-tagged
B18: Clone 225 (designed binder)
chain: MIPGGLSEAKPATPEIQEIVDKVKPQLEEKTGETYGKLEAVQYKTQVVDLHTPHYAPGTNYYIKVRAGDNKYMHLKVFKSLWNTLLEFGGEDLVLTGYQVDKNKDDELTGF
notes: His-tagged
B19: Clone 24 (designed binder)
chain: MIPGGLSEAKPATPEIQEIVDKVKPQLEEKTGETYGKLEAVQYKTQVVEEGTPEWAPGTNYYIKVRAGDNKYMHLKVFKSLWSDVLYNDFEDLVLTGYQVDKNKDDELTGF
notes: His-tagged
B20: Clone 195 (designed binder)
chain: MIPGGLSEAKPATPEIQEIVDKVKPQLEEKTGETYGKLEAVQYKTQVVVGVGRDFPKGTNYYIKVRAGDNKYMHLKVFKSLYIHYLKVNEEDLVLTGYQVDKNKDDELTGF
notes: His-tagged
B21: Clone 191 (designed binder)
chain: MIPGGLSEAKPATPEIQEIVDKVKPQLEEKTGETYGKLEAVQYKTQVVLRYHFPEFHGTNYYIKVRAGDNKYMHLKVFKSLNHLAIHELPEDLVLTGYQVDKNKDDELTGF
notes: His-tagged
B22: Clone 182 (designed binder)
chain: MIPGGLSEAKPATPEIQEIVDKVKPQLEEKTGETYGKLEAVQYKTQVVLKTNPSPSDGTNYYIKVRAGDNKYMHLKVFKSLAVFRQRLGVEDLVLTGYQVDKNKDDELTGF
notes: His-tagged
B23: Clone 187 (designed binder)
chain: MIPGGLSEAKPATPEIQEIVDKVKPQLEEKTGETYGKLEAVQYKTQVVIQDWTVGWEGTNYYIKVRAGDNKYMHLKVFKSLRIGRSTNLWEDLVLTGYQVDKNKDDELTGF
notes: His-tagged
B24: Clone 254 (designed binder)
chain: MIPGGLSEAKPATPEIQEIVDKVKPQLEEKTGETYGKLEAVQYKTQVVISDVSVGWEGTNYYIKVRAGDNKYMHLKVFKSLRSGPAHVRREDLVLTGYQVDKNKDDELTGF
notes: His-tagged
B25: Clone 210 (designed binder)
chain: MIPGGLSEAKPATPEIQEIVDKVKPQLEEKTGETYGKLEAVQYKTQVVWEYAGDYLEGTNYYIKVRAGDNKYMHLKVFKSLFHGIWWARVEDLVLTGYQVDKNKDDELTGF
notes: His-tagged
B26: Clone 215 (designed binder)
chain: MIPGGLSEAKPATPEIQEIVDKVKPQLEEKTGETYGKLEAVQYKTQVVRRVFFPEFPGTNYYIKVRAGDNKYMHLKVFKSLEQPIEGDLWEDLVLTGYQVDKNKDDELTGF
notes: His-tagged
B27: Clone 199 (designed binder)
chain: MIPGGLSEAKPATPEIQEIVDKVKPQLEEKTGETYGKLEAVQYKTQVVRDHELVNQWGTNYYIKVRAGDNKYMHLKVFKSLFGQPVQGNTEDLVLTGYQVDKNKDDELTGF
notes: His-tagged
B28: Clone 2 (designed binder)
chain: MIPGGLSEAKPATPEIQEIVDKVKPQLEEKTGETYGKLEAVQYKTQVVASFIDIGWHGTNYYIKVRAGDNKYMHLKVFKSLREGKHGRNKEDLVLTGYQVDKNKDDELTGF
notes: His-tagged
B29: Clone 36 (designed binder)
chain: MIPGGLSEAKPATPEIQEIVDKVKPQLEEKTGETYGKLEAVQYKTQVVWSFAQVGWHGTNYYIKVRAGDNKYMHLKVFKSLRRFEHLPFYEDLVLTGYQVDKNKDDELTGF
notes: His-tagged
B30: Clone 20 (designed binder)
chain: MIPGGLSEAKPATPEIQEIVDKVKPQLEEKTGETYGKLEAVQYKTQVVANSKWHYAFGTNYYIKVRAGDNKYMHLKVFKSLDNAIYRGPTEDLVLTGYQVDKNKDDELTGF
notes: His-tagged
B31: Clone 200 (designed binder)
chain: MIPGGLSEAKPATPEIQEIVDKVKPQLEEKTGETYGKLEAVQYKTQVVYGPHHQTYAGTNYYIKVRAGDNKYMHLKVFKSLYALHINRWPEDLVLTGYQVDKNKDDELTGF
notes: His-tagged
B32: Clone 211 (designed binder)
chain: MIPGGLSEAKPATPEIQEIVDKVKPQLEEKTGETYGKLEAVQYKTQVVTHPEDAYSWGTNYYIKVRAGDNKYMHLKVFKSLLKPGGLLDFEDLVLTGYQVDKNKDDELTGF
notes: His-tagged
B33: Clone 21 (designed binder)
chain: MIPGGLSEAKPATPEIQEIVDKVKPQLEEKTGETYGKLEAVQYKTQVVKRPHFLQFSGTNYYIKVRAGDNKYMHLKVFKSLNIGPAKKQLEDLVLTGYQVDKNKDDELTGF
notes: His-tagged
B34: Clone 204 (designed binder)
chain: MIPGGLSEAKPATPEIQEIVDKVKPQLEEKTGETYGKLEAVQYKTQVVSLRPHEQLYGTNYYIKVRAGDNKYMHLKVFKSLHLKLWKIPNEDLVLTGYQVDKNKDDELTGF
notes: His-tagged
B35: Clone 214 (designed binder)
chain: MIPGGLSEAEPATPEIQEIVDKVKPQLEEKTGETYGKLEAVQYKTQVVIKIHHGSWEGTNYYIKVRAGDNKYMHLKVFKSLLFWQKQFYREDLVLTGYQVDKNKDDELTGF
notes: His-tagged

These binders were tested against T1, human PD-L1-Fc (R&D Systems) (human, UniProt Q9NZQ7 19-239) (assay: soluble Affimer ELISA).
T1 construct: Bought from R&D Systems; Biotinylated in-house for the phage selection; also called huPD-L1-Fc; human PD-L1-Fc antigen; not shown: Fc part of the bought fusion
T1 sequence (Q9NZQ7 19-239 limits assumed): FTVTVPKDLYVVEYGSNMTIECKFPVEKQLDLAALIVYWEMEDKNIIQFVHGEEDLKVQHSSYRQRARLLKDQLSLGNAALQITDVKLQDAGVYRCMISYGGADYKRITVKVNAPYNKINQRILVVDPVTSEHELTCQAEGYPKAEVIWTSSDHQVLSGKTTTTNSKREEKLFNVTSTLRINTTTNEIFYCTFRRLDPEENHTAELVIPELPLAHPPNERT

Binding result, binds:
B1
B2
B3
B4
B5
B6
B7
B8
B9
B10
B11
B12
B13
B14
B15
B16
B17
B18
B19
B20
B21
B22
B23
B24
B25
B26
B27
B28
B29
B30
B31
B32
B33
B34
B35
